The target of the assay is Fas receptor (Fas, CD95) on human T cells (human) (UniProt P25445). In words: cell-based or functional assay.
Sequence of UniProt P25445 (P25445 26-335): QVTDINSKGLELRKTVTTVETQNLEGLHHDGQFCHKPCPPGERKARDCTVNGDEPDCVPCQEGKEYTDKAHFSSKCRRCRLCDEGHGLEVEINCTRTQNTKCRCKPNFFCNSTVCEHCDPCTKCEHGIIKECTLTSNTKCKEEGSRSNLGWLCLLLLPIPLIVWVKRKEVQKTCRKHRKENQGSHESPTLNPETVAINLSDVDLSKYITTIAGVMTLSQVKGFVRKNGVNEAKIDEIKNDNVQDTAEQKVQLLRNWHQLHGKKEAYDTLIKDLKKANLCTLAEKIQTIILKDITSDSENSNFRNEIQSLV

In turn, “recombinant human FasL (BioLegend) (from UniProt P48023 134-281) (ligand)” yielded a cell survival rate (Annexin V- & DAPI-) after about 16 h of 100 ng/mL FasL, SPPL3-KO Jurkat T cells of 63.1%; a cell survival rate (Annexin V- & DAPI-) after about 16 h of 100 ng/mL FasL, control (NT-KO) Jurkat T cells of 25.7%; a cell survival rate of the Cas9+ sgRNA-iBAR Jurkat T cell library after the first round of 10 ng/ml FasL of 4%; a cell survival rate of the Cas9+ sgRNA-iBAR Jurkat T cell library after the second round of 10 ng/ml FasL of 44.8%. The same substance returned a cell survival rate of the Cas9+ sgRNA-iBAR Jurkat T cell library after the third round of 10 ng/ml FasL of 55.5% and a share of CTV-labeled SPPL3-KO primary T cells in a 1:1 mix with CFSE-labeled NT-KO primary T cells after 16 h of 500 ng/mL FasL (49.2% without FasL) of 75.3%.
